Test results from US20230056470A1, “USES OF ANTI-TGF-BETA ANTIBODIES AND CHECKPOINT INHIBITORS FOR THE TREATMENT OF PROLIFERATIVE DISEASES” (NOVARTIS AG, priority 2019, published 2023).

Tests used:
[1] = Population PK analysis and model-based simulations of NIS793 (dose escalation phase of CNIS793X2101); design: species or system human
Protocol: This is consistent with the observation that NIS793 PK appears dose proportional and time-independent based on the non-compartmental analyses.
Further a dose of 1400 mg would also match exposure observed at 20 mg/kg.

[2] = Clinical PK of NIS793, study CNIS793X2101 (single agent and combination with PDR001; escalation and expansion; cycles 1 and 3); assay type: in vivo, human
[3] = Clinical PK of PDR001 in combination with NIS793, study CNIS793X2101; assay type: in vivo, human; conditions: 100 or 300 mg Q3W and 400 mg Q4W
[4] = Mean, cycle 1, NIS793 0.3 mg/kg Q3W + PDR 100 mg Q3W, escalation
[5] = Mean, cycle 1, NIS793 0.3 mg/kg Q3W + PDR 300 mg Q3W, escalation
[6] = Mean, cycle 1, NIS793 0.3 mg/kg Q3W Liquid, single agent, escalation
[7] = Mean, cycle 1, NIS793 1 mg/kg Q3W + PDR 300 mg Q3W, escalation
[8] = Mean, cycle 1, NIS793 1 mg/kg Q3W Liquid, single agent, escalation
[9] = Mean, cycle 1, NIS793 1 mg/kg Q3W Lyophilisate, single agent, escalation
[10] = Mean, cycle 1, NIS793 3 mg/kg Q3W + PDR 300 mg Q3W, escalation
[11] = Mean, cycle 1, NIS793 10 mg/kg Q3W + PDR 300 mg Q3W, escalation
[12] = Mean, cycle 1, NIS793 20 mg/kg Q2W + PDR 400 mg Q4W, escalation
[13] = Mean, cycle 1, NIS793 30 mg/kg Q2W + PDR 400 mg Q4W, escalation
[14] = Mean, cycle 1, NIS793 30 mg/kg Q3W + PDR 300 mg Q3W, escalation
[15] = cycle 1, NIS793 2100 mg Q3W + PDR 300 mg Q3W, MSS-CRC, expansion, mean
[16] = cycle 1, NIS793 2100 mg Q3W + PDR 300 mg Q3W, NSCLC, expansion, mean
[17] = cycle 3, NIS793 0.3 mg/kg Q3W + PDR 100 mg Q3W, escalation, mean
[18] = cycle 3, NIS793 0.3 mg/kg Q3W + PDR 300 mg Q3W, escalation, mean
[19] = cycle 3, NIS793 0.3 mg/kg Q3W Liquid, single agent, escalation, mean
[20] = cycle 3, NIS793 1 mg/kg Q3W + PDR 300 mg Q3W, escalation, mean
[21] = cycle 3, NIS793 1 mg/kg Q3W Liquid, single agent, escalation, mean
[22] = cycle 3, NIS793 1 mg/kg Q3W Lyophilisate, single agent, escalation, mean
[23] = cycle 3, NIS793 3 mg/kg Q3W + PDR 300 mg Q3W, escalation, mean
[24] = cycle 3, NIS793 10 mg/kg Q3W + PDR 300 mg Q3W, escalation, mean
[25] = cycle 3, NIS793 20 mg/kg Q2W + PDR 400 mg Q4W, escalation, mean
[26] = cycle 3, NIS793 30 mg/kg Q3W + PDR 300 mg Q3W, escalation, mean
[27] = cycle 3, NIS793 2100 mg Q3W + PDR 300 mg Q3W, MSS-CRC, expansion, mean (SD)

Question: Which “Population PK model that describes NIS793 pharmacokinetics” value ([1]; dose escalation concentration data) does the source give for “NIS793: fully human IgG2, human/mouse cross-reactive, TGF-β-neutralizing antibody; heavy and light chain SEQ ID NOs: 9 and 10” here?
Answer: The value was “two compartment model with first order elimination from the central compartment”.

Question: What about the “Estimated exponent of body weight as covariate on clearance (power model)” value ([1]; population PK model, CV %=40%) of the same substance?
Answer: The value was 0.55.

Question: And the “Increase in NIS793 exposure (Cycle 1 Cmax and AUClast) with dose” value ([2]; 30 minute intravenous infusion, 0.3 mg/kg to 30 mg/kg)?
Answer: Its value is “approximately dose-proportional increase”.

Question: What about the AUClast [2, 4] of the same substance?
Answer: The AUClast was 1360000 ng·h/mL.

Question: What about the Clast [2, 4] of the same substance?
Answer: Its Clast is 1400 ng/mL.

Question: And the Cmax [2, 4]?
Answer: Its Cmax is 6440 ng/mL.

Question: And the AUClast [2, 5]?
Answer: Its AUClast is 1700000 ng·h/mL.

Question: What about the Clast [2, 5] of the same substance?
Answer: Its Clast is 1530 ng/mL.

Question: And the Cmax [2, 5]?
Answer: Its Cmax is 11200 ng/mL.

Question: And the AUClast [2, 6]?
Answer: Its AUClast is 1140000 ng·h/mL.

Question: And the Clast [2, 6]?
Answer: Its Clast is 1060 ng/mL.

Question: What about the Cmax [2, 6] of the same substance?
Answer: Its Cmax is 7180 ng/mL.

Question: What about the AUClast [2, 7] of the same substance?
Answer: The AUClast was 5850000 ng·h/mL.

Question: What about the Clast [2, 7] of the same substance?
Answer: Its Clast is 8790 ng/mL.

Question: What about the Cmax [2, 7] of the same substance?
Answer: Its Cmax is 30800 ng/mL.

Question: What about the AUClast [2, 8] of the same substance?
Answer: Its AUClast is 4170000 ng·h/mL.

Question: What about the Clast [2, 8] of the same substance?
Answer: The Clast was 4320 ng/mL.

Question: And the Cmax [2, 8]?
Answer: Its Cmax is 24900 ng/mL.

Question: And the AUClast [2, 9]?
Answer: Its AUClast is 4770000 ng·h/mL.

Question: What about the Clast [2, 9] of the same substance?
Answer: The Clast was 4780 ng/mL.

Question: What about the Cmax [2, 9] of the same substance?
Answer: The Cmax was 27600.0 ng/mL.

Question: And the AUClast [2, 10]?
Answer: Its AUClast is 11400000 ng·h/mL.

Question: What about the Clast [2, 10] of the same substance?
Answer: The Clast was 14300 ng/mL.

Question: What about the Cmax [2, 10] of the same substance?
Answer: The Cmax was 58400 ng/mL.

Question: What about the AUClast [2, 11] of the same substance?
Answer: The AUClast was 3750000 ng·h/mL.

Question: What about the Clast [2, 11] of the same substance?
Answer: The Clast was 44800 ng/mL.

Question: What about the Cmax [2, 11] of the same substance?
Answer: Its Cmax is 181000 ng/mL.

Question: And the AUClast [2, 12]?
Answer: The AUClast was 54500000 ng·h/mL.

Question: And the Clast [2, 12]?
Answer: The Clast was 107000 ng/mL.

Question: And the Cmax [2, 12]?
Answer: Its Cmax is 333000 ng/mL.

Question: And the AUClast [2, 13]?
Answer: Its AUClast is 69100000 ng·h/mL.

Question: What about the Clast [2, 13] of the same substance?
Answer: Its Clast is 154000 ng/mL.

Question: What about the Cmax [2, 13] of the same substance?
Answer: The Cmax was 439000 ng/mL.

Question: And the AUClast [2, 14]?
Answer: The AUClast was 90900000 ng·h/mL.

Question: And the Clast [2, 14]?
Answer: The Clast was 133000 ng/mL.

Question: What about the Cmax [2, 14] of the same substance?
Answer: Its Cmax is 519000 ng/mL.

Question: And the AUClast [2, 15]?
Answer: The AUClast was 94700000 ng·h/mL.

Question: What about the Clast [2, 15] of the same substance?
Answer: Its Clast is 206000 ng/mL.

Question: And the Cmax [2, 15]?
Answer: The Cmax was 547000 ng/mL.

Question: What about the AUClast [2, 16] of the same substance?
Answer: The AUClast was 140000000 ng·h/mL.

Question: And the Clast [2, 16]?
Answer: The Clast was 180000 ng/mL.

Question: And the Cmax [2, 16]?
Answer: The Cmax was 743000 ng/mL.

Question: And the AUClast [2, 17]?
Answer: The AUClast was 2530000 ng·h/mL.

Question: And the Clast [2, 17]?
Answer: Its Clast is 2960 ng/mL.

Question: And the Cmax [2, 17]?
Answer: The Cmax was 8990 ng/mL.

Question: And the AUClast [2, 18]?
Answer: The AUClast was 2960000 ng·h/mL.

Question: And the Clast [2, 18]?
Answer: Its Clast is 3330 ng/mL.

Question: And the Cmax [2, 18]?
Answer: The Cmax was 11600 ng/mL.

Question: What about the AUClast [2, 19] of the same substance?
Answer: Its AUClast is 1820000 ng·h/mL.

Question: What about the Clast [2, 19] of the same substance?
Answer: The Clast was 1900 ng/mL.

Question: What about the Cmax [2, 19] of the same substance?
Answer: Its Cmax is 8750 ng/mL.

Question: And the AUClast [2, 20]?
Answer: Its AUClast is 5630000 ng·h/mL.

Question: What about the Clast [2, 20] of the same substance?
Answer: Its Clast is 9710 ng/mL.

Question: What about the Cmax [2, 20] of the same substance?
Answer: Its Cmax is 31300 ng/mL.

Question: What about the AUClast [2, 21] of the same substance?
Answer: The AUClast was 2910000 ng·h/mL.

Question: What about the Clast [2, 21] of the same substance?
Answer: The Clast was 4290 ng/mL.

Question: What about the Cmax [2, 21] of the same substance?
Answer: The Cmax was 9830 ng/mL.

Question: And the AUClast [2, 22]?
Answer: The AUClast was 4090000 ng·h/mL.

Question: And the Clast [2, 22]?
Answer: Its Clast is 6350 ng/mL.

Question: And the Cmax [2, 22]?
Answer: The Cmax was 13800 ng/mL.

Question: What about the AUClast [2, 23] of the same substance?
Answer: The AUClast was 13900000 ng·h/mL.

Question: What about the Clast [2, 23] of the same substance?
Answer: The Clast was 16100 ng/mL.

Question: And the Cmax [2, 23]?
Answer: The Cmax was 55200 ng/mL.

Question: What about the AUClast [2, 24] of the same substance?
Answer: Its AUClast is 69200000 ng·h/mL.

Question: And the Clast [2, 24]?
Answer: Its Clast is 95900 ng/mL.

Question: What about the Cmax [2, 24] of the same substance?
Answer: Its Cmax is 220000 ng/mL.

Question: And the AUClast [2, 25]?
Answer: The AUClast was 149000000 ng·h/mL.

Question: What about the Clast [2, 25] of the same substance?
Answer: Its Clast is 154000 ng/mL.

Question: What about the Cmax [2, 25] of the same substance?
Answer: Its Cmax is 524000 ng/mL.

Question: And the AUClast [2, 26]?
Answer: Its AUClast is 242000000 ng·h/mL.

Question: And the Clast [2, 26]?
Answer: The Clast was 228000 ng/mL.

Question: What about the Cmax [2, 26] of the same substance?
Answer: Its Cmax is 713000 ng/mL.

Question: And the AUClast [2, 27]?
Answer: The AUClast was 95500000 (88500000) h*ng/mL.

Question: And the Clast [2, 27]?
Answer: The Clast was 341000 (313000) ng/mL.

Question: What about the Cmax [2, 27] of the same substance?
Answer: The Cmax was 590000 (319000) ng/mL.

Question: What about the “Between subject variability (CV %) for Cmax” value ([2]; patients, across dose cohorts) of the same substance?
Answer: The value was 12.1 to 73.3%.

Question: With “PDR001: anti-PD-1 inhibitor spartalizumab, also known as PDR001 (Novartis)” as the substance, how does the “PK of PDR001 in combination with NIS793 versus single agent data” value [3] read?
Answer: Its value is “appears to be similar to the single agent data”.
